# Biological target: Human IGF Receptor (Type I IGF receptor) (human) (UniProt P08069)
# Assay: microtiter plate antibody capture competition assay with IGF Type I receptor
# Sequence of Human IGF Receptor (Type I IGF receptor) (human) (P08069 31-1367 limits assumed): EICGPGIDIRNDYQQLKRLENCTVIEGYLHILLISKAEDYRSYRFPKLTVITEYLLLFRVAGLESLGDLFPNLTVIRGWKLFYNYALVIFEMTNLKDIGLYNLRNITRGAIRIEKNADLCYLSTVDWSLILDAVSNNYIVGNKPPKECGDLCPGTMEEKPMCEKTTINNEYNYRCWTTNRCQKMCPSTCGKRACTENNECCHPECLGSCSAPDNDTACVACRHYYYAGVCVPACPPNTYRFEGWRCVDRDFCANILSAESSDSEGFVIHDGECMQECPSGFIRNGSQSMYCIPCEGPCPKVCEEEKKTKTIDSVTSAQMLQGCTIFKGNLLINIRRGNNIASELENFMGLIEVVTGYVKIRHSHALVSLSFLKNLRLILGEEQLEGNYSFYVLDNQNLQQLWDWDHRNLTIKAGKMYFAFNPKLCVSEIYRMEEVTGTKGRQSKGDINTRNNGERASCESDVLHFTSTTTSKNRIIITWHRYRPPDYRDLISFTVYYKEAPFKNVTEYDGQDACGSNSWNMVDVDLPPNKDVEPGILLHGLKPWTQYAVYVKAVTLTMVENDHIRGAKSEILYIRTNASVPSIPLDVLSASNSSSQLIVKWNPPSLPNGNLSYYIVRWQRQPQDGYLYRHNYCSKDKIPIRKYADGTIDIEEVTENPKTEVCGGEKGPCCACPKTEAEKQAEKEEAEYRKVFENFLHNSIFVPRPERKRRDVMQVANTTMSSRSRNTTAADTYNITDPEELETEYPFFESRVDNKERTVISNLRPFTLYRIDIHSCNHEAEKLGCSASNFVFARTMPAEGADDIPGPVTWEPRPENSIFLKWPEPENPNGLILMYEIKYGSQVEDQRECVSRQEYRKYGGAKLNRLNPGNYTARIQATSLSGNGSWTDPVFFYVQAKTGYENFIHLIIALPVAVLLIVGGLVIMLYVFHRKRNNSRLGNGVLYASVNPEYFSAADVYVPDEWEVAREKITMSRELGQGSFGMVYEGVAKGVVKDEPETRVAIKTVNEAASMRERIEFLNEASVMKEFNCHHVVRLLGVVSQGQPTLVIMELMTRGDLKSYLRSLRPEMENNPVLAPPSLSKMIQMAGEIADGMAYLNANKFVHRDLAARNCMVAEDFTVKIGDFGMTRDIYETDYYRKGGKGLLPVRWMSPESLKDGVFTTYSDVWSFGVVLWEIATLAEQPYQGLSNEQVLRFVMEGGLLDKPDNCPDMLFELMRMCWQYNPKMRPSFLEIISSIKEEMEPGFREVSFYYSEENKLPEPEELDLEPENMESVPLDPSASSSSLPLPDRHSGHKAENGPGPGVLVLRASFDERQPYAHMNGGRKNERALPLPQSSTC
substance,measurement,value
KP-insulin (SEQ. ID. NOS. 2 & 4) (ligand; other documents disagree on this pair),Affinity for IGFR (compared to that of human insulin),90
